Measurements taken from patent US20100111958A1 (published 2010).
Changes are numbered by the printed parent chain.

Experiments:
[1] = target: T1, recombinant Notch2 (EGF1-12) Fc fusion protein (human); experiment: phage selection and ELISA screen on passively immobilized Notch2 (EGF1-12) Fc fusion
T1 construct: passively immobilised for phage selection and ELISA screen; also called Notch2 Fc fusion protein
Experimental: Briefly, 2×10¹³ Fab displaying phage particles were incubated with a passively immobilized, recombinant Notch2 Fc fusion protein (SEQ ID NO:21) comprising the extracellular ligand binding site of Notch2 and surrounding EGF repeats (EGF1-12) in round one. The non-specific phage were washed off, and then the specific phage were eluted with DTT. The eluted output was used to infect TG1 F+bacteria, rescued with helper phage, and then Fab display induced with IPTG (0.25 mM). This process was repeated for two additional rounds and then round three was screened in ELISA against passively immobilized recombinant Notch2 (EGF1-12) Fc fusion (5 μg/ml).

[2] = target: T2, human Notch1 with residues 382-386 mutated to the corresponding human Notch2 residues (385-389), full length, … (human, UniProt P46531 19-2555); experiment: FACS on transiently transfected HEK 293 cells
T2 construct: G384 is the same in both; also called mutant hNotch1; mutated Notch1
Experimental: FIG. 15. In vitro characterization of 59R5. […] PC3 tumor cells were transiently transfected with human or mouse Notch receptor (hN2, human Notch2; mN2, murine Notch2; hN3, human Notch3; mN3, murine Notch3) and GFP inducible reporter construct. Transfected cells were incubated with different concentrations of antibody 59R1 and 59R5 in the presence of passively immobilized DLL4 Fc. […] Cells were also co-transfected with a plasmid encoding green fluorescent protein (GFP) to mark those cells that received transfected plasmid. Cells were incubated with 59R1 or 59R5 and fluorescent secondary antibody and then examined by FACS.
The binding epitope of 59R5 was determined. As was described in Example 3 for analysis of antibody 59R1, several point mutants were created within full-length Notch1, converting residues within EGF10 to the corresponding amino acids in human Notch 2. Mutants in full-length Notch sequences were generated by QuikChange® mutagenesis (Stratagene) and verified by sequencing. […] Cells were also co-transfected with a plasmid encoding green fluorescent protein (GFP) to mark those cells that received transfected plasmid. Cells were incubated with 59R1 or 59R5 and fluorescent secondary antibody and then examined by FACS. 59R1 and 59R5 were detected by PE-conjugated goat anti-human Fc gamma specific antibody (Jackson Immunochemicals, #109-1,6-170).

T1 sequence (chain, as listed by the source limits assumed): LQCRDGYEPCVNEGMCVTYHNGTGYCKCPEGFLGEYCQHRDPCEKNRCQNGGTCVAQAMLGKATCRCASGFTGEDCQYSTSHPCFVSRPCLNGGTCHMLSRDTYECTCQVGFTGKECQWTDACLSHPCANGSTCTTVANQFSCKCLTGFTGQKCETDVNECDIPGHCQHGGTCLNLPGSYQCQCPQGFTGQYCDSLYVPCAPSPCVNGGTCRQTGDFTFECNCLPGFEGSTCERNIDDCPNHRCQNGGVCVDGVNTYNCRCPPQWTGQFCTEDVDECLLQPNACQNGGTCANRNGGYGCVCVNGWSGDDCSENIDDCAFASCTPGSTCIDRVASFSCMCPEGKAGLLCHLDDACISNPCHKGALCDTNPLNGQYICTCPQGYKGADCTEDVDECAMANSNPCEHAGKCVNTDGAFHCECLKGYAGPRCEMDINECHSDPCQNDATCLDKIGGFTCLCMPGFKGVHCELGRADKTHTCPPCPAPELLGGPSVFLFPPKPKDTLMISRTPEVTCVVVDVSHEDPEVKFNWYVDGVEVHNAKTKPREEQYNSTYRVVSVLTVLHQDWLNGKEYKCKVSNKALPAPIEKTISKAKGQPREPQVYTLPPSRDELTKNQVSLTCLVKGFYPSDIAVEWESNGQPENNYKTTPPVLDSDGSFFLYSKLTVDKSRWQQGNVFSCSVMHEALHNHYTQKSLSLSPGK
T2 sequence (P46531 other isoform, or with tags, fused parts or gaps limits assumed, change not shown): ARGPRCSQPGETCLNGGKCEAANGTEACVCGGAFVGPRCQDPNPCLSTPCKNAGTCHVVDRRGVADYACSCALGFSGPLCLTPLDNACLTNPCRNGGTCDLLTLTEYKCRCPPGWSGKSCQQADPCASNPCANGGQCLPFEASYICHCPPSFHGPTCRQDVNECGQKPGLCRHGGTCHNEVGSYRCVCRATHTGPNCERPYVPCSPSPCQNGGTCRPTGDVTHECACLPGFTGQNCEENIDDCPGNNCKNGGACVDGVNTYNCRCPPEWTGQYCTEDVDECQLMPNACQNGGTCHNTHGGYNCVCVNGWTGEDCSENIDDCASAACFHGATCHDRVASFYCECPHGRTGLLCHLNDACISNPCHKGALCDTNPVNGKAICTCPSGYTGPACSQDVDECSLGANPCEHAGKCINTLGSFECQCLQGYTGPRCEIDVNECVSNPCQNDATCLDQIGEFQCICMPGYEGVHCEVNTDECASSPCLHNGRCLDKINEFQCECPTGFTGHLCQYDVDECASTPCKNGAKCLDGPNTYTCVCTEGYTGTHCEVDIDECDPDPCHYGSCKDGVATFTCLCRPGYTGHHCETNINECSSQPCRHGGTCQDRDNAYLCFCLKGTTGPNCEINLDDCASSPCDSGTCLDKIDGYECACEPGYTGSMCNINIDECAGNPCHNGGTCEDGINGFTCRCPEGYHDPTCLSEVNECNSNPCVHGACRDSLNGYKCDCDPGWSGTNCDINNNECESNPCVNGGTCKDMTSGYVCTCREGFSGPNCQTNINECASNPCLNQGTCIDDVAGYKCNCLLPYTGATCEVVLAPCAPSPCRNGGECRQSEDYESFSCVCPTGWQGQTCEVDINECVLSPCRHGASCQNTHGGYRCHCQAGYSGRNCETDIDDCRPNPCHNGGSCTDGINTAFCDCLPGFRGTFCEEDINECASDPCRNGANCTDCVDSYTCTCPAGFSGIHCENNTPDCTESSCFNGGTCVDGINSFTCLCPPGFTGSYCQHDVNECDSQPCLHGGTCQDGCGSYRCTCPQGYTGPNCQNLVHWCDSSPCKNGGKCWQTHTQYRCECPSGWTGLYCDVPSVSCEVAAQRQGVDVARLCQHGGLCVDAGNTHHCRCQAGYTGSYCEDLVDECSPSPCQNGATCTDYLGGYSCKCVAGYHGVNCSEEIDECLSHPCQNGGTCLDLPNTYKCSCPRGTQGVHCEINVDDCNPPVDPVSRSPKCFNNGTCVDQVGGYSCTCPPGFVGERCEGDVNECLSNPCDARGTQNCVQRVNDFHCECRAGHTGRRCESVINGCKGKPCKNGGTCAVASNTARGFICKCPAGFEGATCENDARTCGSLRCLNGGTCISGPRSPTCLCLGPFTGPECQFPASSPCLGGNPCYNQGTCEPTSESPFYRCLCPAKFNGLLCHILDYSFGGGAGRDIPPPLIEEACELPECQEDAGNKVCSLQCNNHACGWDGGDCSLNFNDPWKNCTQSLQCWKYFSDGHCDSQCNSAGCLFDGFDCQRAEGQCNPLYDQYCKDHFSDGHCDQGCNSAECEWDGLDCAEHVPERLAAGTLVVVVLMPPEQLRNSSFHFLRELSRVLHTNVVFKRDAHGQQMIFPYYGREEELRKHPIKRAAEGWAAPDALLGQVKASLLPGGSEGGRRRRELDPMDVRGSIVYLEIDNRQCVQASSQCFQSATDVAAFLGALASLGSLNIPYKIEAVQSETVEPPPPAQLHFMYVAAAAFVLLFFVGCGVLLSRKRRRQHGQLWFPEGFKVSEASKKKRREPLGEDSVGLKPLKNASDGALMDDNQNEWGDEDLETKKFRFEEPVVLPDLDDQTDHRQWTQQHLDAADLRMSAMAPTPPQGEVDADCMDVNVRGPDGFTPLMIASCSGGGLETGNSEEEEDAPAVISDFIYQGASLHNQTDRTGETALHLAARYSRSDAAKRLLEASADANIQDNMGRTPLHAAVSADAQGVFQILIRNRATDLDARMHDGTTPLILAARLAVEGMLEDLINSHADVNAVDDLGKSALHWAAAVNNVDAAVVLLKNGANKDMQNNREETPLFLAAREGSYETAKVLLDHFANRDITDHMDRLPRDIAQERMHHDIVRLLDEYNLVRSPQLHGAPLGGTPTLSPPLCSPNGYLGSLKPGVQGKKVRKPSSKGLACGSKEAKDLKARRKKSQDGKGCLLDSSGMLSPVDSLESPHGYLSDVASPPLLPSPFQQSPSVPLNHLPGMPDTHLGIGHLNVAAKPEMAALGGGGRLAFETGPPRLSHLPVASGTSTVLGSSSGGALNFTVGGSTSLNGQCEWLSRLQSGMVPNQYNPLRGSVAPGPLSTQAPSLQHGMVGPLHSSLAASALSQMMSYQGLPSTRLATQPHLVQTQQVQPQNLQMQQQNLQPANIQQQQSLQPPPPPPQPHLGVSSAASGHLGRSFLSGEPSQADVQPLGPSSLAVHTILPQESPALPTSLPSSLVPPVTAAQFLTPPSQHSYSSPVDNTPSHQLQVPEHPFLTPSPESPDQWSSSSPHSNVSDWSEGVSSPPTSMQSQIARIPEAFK

B1: 59R1 Fab (Fab, V domains shown)
VH: QVQLVESGGGLVQPGGSLRLSCAASGFTFSSSGMSWVRQAPGKGLEWVSVIASSGSNTYYADSVKGRFTISRDNSKNTLYLQMNSLRAEDTAVYYCARGIFFAIWGQGTLVTVSS
VL: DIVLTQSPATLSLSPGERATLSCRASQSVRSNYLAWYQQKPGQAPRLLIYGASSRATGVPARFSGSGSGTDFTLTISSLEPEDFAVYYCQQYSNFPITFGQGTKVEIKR
notes: Human Fab from a synthetic phage library; also called Clone 1; clone 1
B1: binds [1].

B2: 59R5 antibody (antibody, human IgG2, kappa, V domains shown)
VH: B1 VH with Q1E, G99S, F102Y, A103T, I104T
VL: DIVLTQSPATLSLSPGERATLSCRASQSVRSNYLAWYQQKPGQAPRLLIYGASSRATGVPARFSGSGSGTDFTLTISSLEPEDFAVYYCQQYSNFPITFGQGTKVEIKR
notes: also called anti-Notch2/3 antibody 59R5; 59R5 IgG2
B2: binds [2].
